In patent US20240034774A1 (Gilead, published 2024):
Residue numbers refer to the chain shown, from its start.

B1: Antibody A-1 (antibody, human IgG1, kappa)
heavy: QVQLLQSGAAVTKPGASVRVSCEASGYNIRDYFIHWWRQAPGQGLQWVGWINPKTGQPNNPRQFQGRVSLTRHASWDFDTFSFYMDLKALRSDDTAVYFCARQRSDYWDFDVWGSGTQVTVSSASTKGPSVFPLAPSSKSTSGGTAALGCLVKDYFPEPVTVSWNSGALTSGVHTFPAVLQSSGLYSLSSVVTVPSSSLGTQTYICNVNHKPSNTKVDKKVEPKSCDKTHTCPPCPAPELLAGPDVFLFPPKPKDTLMISRTPEVTCVVVDVSHEDPEVKFNWYVDGVEVHNAKTKPREEQYNSTYRVVSVLTVLHQDWLNGKEYKCKVSNKALPLPEEKTISKAKGQPREPQVYTLPPSREEMTKNQVSLTCLVKGFYPSDIAVEWESNGQPENNYKTTPPVLDSDGSFFLYSKLTVDKSRWQQGNVFSCSVLHEALHSHYTQKSLSLSPGK
light: DIQMTQSPSSLSASVGDTVTITCQANGYLNWYQQRRGKAPKLLIYDGSKLERGVPSRFSGRRWGQEYNLTINNLQPEDIATYFCQVYEFVVPGTRLDLKRTVAAPSVFIFPPSDEQLKSGTASVVCLLNNFYPREAKVQWKVDNALQSGNSQESVTEQDSKDSTYSLSSTLTLSKADYEKHKVYACEVTHQGLSSPVTKSFNRGEC
B2: 1.36.1-1 (antibody, human IgG1, kappa)
heavy: QVQLVQSGAEVKKPGASVRVSCKASGYNIRDYFMHWWRQAPGQGLQWVGWINPKTGQPNNPRQFQGRVTMTRHASWDFDTFSAYMDLSRLRSDDTATYFCARQRTDYWDFDVWGQGTMVTVSSASTKGPSVFPLAPSSKSTSGGTAALGCLVKDYFPEPVTVSWNSGALTSGVHTFPAVLQSSGLYSLSSVVTVPSSSLGTQTYICNVNHKPSNTKVDKKVEPKSCDKTHTCPPCPAPELLAGPDVFLFPPKPKDTLMISRTPEVTCVVVDVSHEDPEVKFNWYVDGVEVHNAKTKPREEQYNSTYRVVSVLTVLHQDWLNGKEYKCKVSNKALPLPEEKTISKAKGQPREPQVYTLPPSREEMTKNQVSLTCLVKGFYPSDIAVEWESNGQPENNYKTTPPVLDSDGSFFLYSKLTVDKSRWQQGNVFSCSVLHEALHSHYTQKSLSLSPGK
light: B1 light
B3: 1.1.9-1 (antibody, human IgG1, kappa)
heavy: B1 heavy
light: B1 light with R52T
B4: 1.1.15-1 (antibody, human IgG1, kappa)
heavy: B1 heavy
light: B1 light with V90F
B5: 1.1.10-1 (antibody, human IgG1, kappa)
heavy: B1 heavy
light: B1 light with N68T
B6: 1.1.7-1 (antibody, human IgG1, kappa)
heavy: B1 heavy
light: B1 light with K49N
B7: 1.1.24-1 (antibody, human IgG1, kappa)
heavy: B1 heavy
light: B1 light with L96V
B8: 1.1.18-1 (antibody, human IgG1, kappa)
heavy: B1 heavy
light: B1 light with V91S
B9: 1.1.11-1 (antibody, human IgG1, kappa)
heavy: B1 heavy
light: B1 light with R61S, N68T
B10: 1.1.28-1 (antibody, human IgG1, kappa)
heavy: B1 heavy
light: B1 light with R95N, L96V, L98I
B11: 1.1.4-1 (antibody, human IgG1, kappa)
heavy: B1 heavy
light: B1 light with T18R
B12: 1.1.5-1 (antibody, human IgG1, kappa)
heavy: B1 heavy
light: B1 light with R35K, R36P
B13: 1.1.29-1 (antibody, human IgG1, kappa)
heavy: B1 heavy
light: B1 light with V91G, R95N, L96V, L98I
B14: 1.1.22-1 (antibody, human IgG1, kappa)
heavy: B1 heavy
light: B1 light with V91S, R95N
B15: 1.1.20-1 (antibody, human IgG1, kappa)
heavy: B1 heavy
light: B1 light with R95N
B16: 1.1.12-1 (antibody, human IgG1, kappa)
heavy: B1 heavy
light: B1 light with N72S, N73S
B17: 1.1.30-1 (antibody, human IgG1, kappa)
heavy: B1 heavy
light: B1 light with V91T, R95N, L96V, L98I
B18: 1.1.13-1 (antibody, human IgG1, kappa)
heavy: B1 heavy
light: B1 light with R61S, N68T, N72S, N73S
B19: 1.1.26-1 (antibody, human IgG1, kappa)
heavy: B1 heavy
light: B1 light with L98I
B20: 1.1.19-1 (antibody, human IgG1, kappa)
heavy: B1 heavy
light: B1 light with V91T
B21: 1.1.21-1 (antibody, human IgG1, kappa)
heavy: B1 heavy
light: B1 light with V91G, R95N
B22: 1.1.8-1 (antibody, human IgG1, kappa)
heavy: B1 heavy
light: B1 light with G47A, K49N
B23: 1.1.3-1 (antibody, human IgG1, kappa)
heavy: B1 heavy
light: B1 light with D1E
B24: 1.1.25-1 (antibody, human IgG1, kappa)
heavy: B1 heavy
light: B1 light with R95N, L96V
B25: 1.1.27-1 (antibody, human IgG1, kappa)
heavy: B1 heavy
light: B1 light with L96V, L98I
B26: 1.1.6-1 (antibody, human IgG1, kappa)
heavy: B1 heavy
light: B1 light with G47A
B27: 1.1.23-1 (antibody, human IgG1, kappa)
heavy: B1 heavy
light: B1 light with V91T, R95N
B28: 1.1.17-1 (antibody, human IgG1, kappa)
heavy: B1 heavy
light: B1 light with V90F, V91G
B29: 1.1.16-1 (antibody, human IgG1, kappa)
heavy: B1 heavy
light: B1 light with V91G

Columns and labels:
BSA = BSA (UniProt P02769 25-607); experiment: single-point ELISA, BSA control
gp120 Bal = gp120 Bal (HIV (Bal)); experiment: single-point ELISA at EC50 conc. of A-1
gp120 SHIV SF162 P3 = gp120 SHIV SF162 P3 (SHIV SF162 P3); experiment: single-point ELISA at EC50 conc. of A-1
gp120 CAAN = gp120 CAAN (HIV (CAAN)); experiment: single-point ELISA at EC50 conc. of A-1

Binder	ELISA A450 (BSA) [A450]	ELISA A450 (gp120 Bal) [A450]	ELISA A450 (gp120 SHIV SF162 P3) [A450]	ELISA A450 (gp120 CAAN) [A450]
B1	0.06	0.91	0.94	1.06
B2		1.13	0.59	0.75
B3	0.07	0.98	1.09	0.93
B4	0.06	0.93	0.79	0.79
B5	0.06	0.94	1.02	1.1
B6	0.06	0.95	1.02	1
B7	0.06	0.88	0.97	0.98
B8	0.06	0.92	0.94	0.92
B9	0.06	0.92	0.93	1.03
B10	0.06	0.98	1.09	0.93
B11	0.06	0.96	1.07	1.09
B12	0.06	0.9	0.93	0.9
B13	0.06	0.91	0.9	1.01
B14	0.06	0.88	1.04	1.02
B15	0.07	0.94	1.01	0.95
B16	0.06	1.05	1.13	1.02
B17	0.06	0.9	0.98	0.86
B18	0.06	0.94	0.97	1.11
B19	0.06	0.96	1.09	1.07
B20	0.06	1.03	1.12	1.05
B21	0.06	0.98	1.03	0.99
B22	0.06	1.01	0.37	0.5
B23	0.07	0.97	0.97	1
B24	0.07	0.9	1.01	0.92
B25	0.06	0.97	1.1	0.99
B26	0.07	0.91	0.41	0.46
B27	0.06	0.9	1.07	0.95
B28	0.06	1.02	1.07	0.9
B29	0.06	1.06	1.05	0.99
